In this assay the test system is melanoma cell lines. The assay can be described thus: Immunoblot of differentiation biomarkers (AXL, NGFR, MITF, MART-1) and pERK. To be noted: IFNγ=100 U/mL, TNFα=1000 U/mL; M229, M397, M249. Type of assay: cell-based, human. On the procedure:
Cells were lysed in modified RIPA buffer (50 mM Tris-HCl (pH 7.5), […], 10 mM β-glycerophosphate, 1% NP-40, 0.25% sodium deoxycholate, 10 mM sodium pyrophosphate, 30 mM sodium fluoride, 1 mM EDTA, 1 mM vanadate, 20 μg/ml aprotinin, 20 μg/ml leupeptin, and 1 mM phenylmethylsulfonyl fluoride). Whole-cell lysates were resolved by SDS-PAGE on TruPAGE 4-15% gradient gels (Sigma-Aldrich) and blotted onto nitrocellulose membranes. Membranes were blocked overnight with 5% milk and then incubated sequentially with primary and then IRDye-conjugated secondary antibodies (Li-Cor). Blots were imaged using the Odyssey Infrared Imaging System (Li-Cor). Primary antibodies used for Western blot analysis were MITF (DGG7V, CST), MART-1 (A103, SCBT), and AXL (C89E7, CST).
(Immunoblotting shows a protein as a band on a membrane.)

B1: IFNγ: Recombinant IFNγ, cytokine secreted by T cells, obtained from Peprotech (protein, UniProt P01579 24-161, looked up)
Interferon gamma: QDPYVKEAENLKKYFNAGHSDVADNGTLFLGILKNWKEESDRKIMQSQIVSFYFKLFKNFKDDQSIQKSVETIKEDMNVKFFNSNKKKRDDFEKLTNYSVTDLNVQRKAIHELIQVMAELSPAAKTGKRKRSQMLFRG
With B1, the “differentiation state (up-regulation of AXL, decreased MITF or MART-1)” value is given as “induced de-differentiation”.
